Key:
Test in all cases: ELISA, antibody coated, OX40-ECD.His mutant supernatant; relative to silent alanine substitutions;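 also: captured OX40 mutant protein detected with HRP-labelled anti-His antibody, absorbance read-out, scaled to the mean signal of control mutants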
human OX40-ECD.His D34A = biological target: T1, human OX40-ECD.His D34A (human, UniProt P43489 29-214)
T1 construct: extracellular domain; not shown: C-terminal His-tag
T1 sequence (looked up): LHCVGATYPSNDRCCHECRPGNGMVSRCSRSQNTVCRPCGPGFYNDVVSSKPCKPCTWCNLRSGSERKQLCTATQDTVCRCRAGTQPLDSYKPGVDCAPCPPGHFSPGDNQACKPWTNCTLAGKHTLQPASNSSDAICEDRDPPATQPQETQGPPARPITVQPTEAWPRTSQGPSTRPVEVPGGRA

human OX40-ECD.His H44A = biological target: T2, human OX40-ECD.His H44A (human, UniProt P43489 29-214)
T2 construct: extracellular domain; not shown: C-terminal His-tag
T2 sequence (looked up): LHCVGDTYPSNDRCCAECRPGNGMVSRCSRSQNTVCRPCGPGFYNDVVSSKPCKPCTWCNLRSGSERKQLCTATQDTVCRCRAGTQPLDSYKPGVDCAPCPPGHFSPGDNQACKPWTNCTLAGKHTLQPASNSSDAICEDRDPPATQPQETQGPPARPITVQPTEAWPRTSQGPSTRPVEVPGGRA

human OX40-ECD.His A101G = biological target: T3, human OX40-ECD.His A101G (human, UniProt P43489 29-214)
T3 construct: extracellular domain; not shown: C-terminal His-tag
T3 sequence (looked up): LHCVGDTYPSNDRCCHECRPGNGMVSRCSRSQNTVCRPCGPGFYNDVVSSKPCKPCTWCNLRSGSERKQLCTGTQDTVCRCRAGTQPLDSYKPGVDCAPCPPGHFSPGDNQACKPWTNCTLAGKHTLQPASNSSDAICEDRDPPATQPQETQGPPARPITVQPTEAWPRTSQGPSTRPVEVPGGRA

human OX40-ECD.His G68A = biological target: T4, human OX40-ECD.His G68A (human, UniProt P43489 29-214)
T4 construct: extracellular domain; not shown: C-terminal His-tag
T4 sequence (looked up): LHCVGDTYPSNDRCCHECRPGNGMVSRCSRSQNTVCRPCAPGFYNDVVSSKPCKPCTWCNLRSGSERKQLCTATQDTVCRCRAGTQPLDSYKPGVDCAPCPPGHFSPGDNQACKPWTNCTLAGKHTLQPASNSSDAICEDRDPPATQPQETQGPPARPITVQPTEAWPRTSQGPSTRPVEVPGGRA

human OX40-ECD.His I165A = biological target: T5, human OX40-ECD.His I165A (human, UniProt P43489 29-214)
T5 construct: extracellular domain; not shown: C-terminal His-tag
T5 sequence (looked up): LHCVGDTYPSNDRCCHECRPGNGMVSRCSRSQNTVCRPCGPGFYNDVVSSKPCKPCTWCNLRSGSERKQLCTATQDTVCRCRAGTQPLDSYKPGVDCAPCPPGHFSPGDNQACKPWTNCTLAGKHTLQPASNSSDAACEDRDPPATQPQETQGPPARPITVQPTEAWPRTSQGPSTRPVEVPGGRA

human OX40-ECD.His P171A = biological target: T6, human OX40-ECD.His P171A (human, UniProt P43489 29-214)
T6 construct: extracellular domain; not shown: C-terminal His-tag
T6 sequence (looked up): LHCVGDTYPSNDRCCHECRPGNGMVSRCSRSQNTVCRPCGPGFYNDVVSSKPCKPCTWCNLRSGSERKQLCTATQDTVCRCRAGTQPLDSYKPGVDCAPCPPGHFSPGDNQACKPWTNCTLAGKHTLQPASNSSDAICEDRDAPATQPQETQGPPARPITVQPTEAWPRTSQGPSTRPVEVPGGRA

human OX40-ECD.His R65A = biological target: T7, human OX40-ECD.His R65A (human, UniProt P43489 29-214)
T7 construct: extracellular domain; not shown: C-terminal His-tag
T7 sequence (looked up): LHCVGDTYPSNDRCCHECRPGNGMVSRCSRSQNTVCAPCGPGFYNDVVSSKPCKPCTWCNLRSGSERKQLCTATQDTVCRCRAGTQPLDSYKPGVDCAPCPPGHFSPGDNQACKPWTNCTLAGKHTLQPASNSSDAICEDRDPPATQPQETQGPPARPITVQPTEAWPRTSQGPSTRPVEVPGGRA

human OX40-ECD.His T62A = biological target: T8, human OX40-ECD.His T62A (human, UniProt P43489 29-214)
T8 construct: extracellular domain; not shown: C-terminal His-tag
T8 sequence (looked up): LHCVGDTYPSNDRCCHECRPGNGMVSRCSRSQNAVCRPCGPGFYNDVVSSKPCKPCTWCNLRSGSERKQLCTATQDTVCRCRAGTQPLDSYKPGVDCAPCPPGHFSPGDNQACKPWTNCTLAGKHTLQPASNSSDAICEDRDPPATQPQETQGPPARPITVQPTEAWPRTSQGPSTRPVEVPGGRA

human OX40-ECD.His D40A = biological target: T9, human OX40-ECD.His D40A (human, UniProt P43489 29-214)
T9 construct: extracellular domain; not shown: C-terminal His-tag
T9 sequence (looked up): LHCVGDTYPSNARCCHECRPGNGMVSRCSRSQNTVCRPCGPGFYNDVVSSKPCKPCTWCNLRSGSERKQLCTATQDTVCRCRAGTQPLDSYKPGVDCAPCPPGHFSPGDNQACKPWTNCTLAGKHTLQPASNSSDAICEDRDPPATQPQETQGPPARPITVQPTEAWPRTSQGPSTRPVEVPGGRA

human OX40-ECD.His D163A = biological target: T10, human OX40-ECD.His D163A (human, UniProt P43489 29-214)
T10 construct: extracellular domain; not shown: C-terminal His-tag
T10 sequence (looked up): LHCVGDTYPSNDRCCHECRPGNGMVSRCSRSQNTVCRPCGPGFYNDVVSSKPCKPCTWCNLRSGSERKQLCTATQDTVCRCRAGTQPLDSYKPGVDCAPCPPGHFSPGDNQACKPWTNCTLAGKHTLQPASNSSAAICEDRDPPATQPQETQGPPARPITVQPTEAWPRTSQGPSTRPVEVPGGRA

Fold Change (human OX40-ECD.His D34A): 0.991
Fold Change (human OX40-ECD.His H44A): 1
Fold Change (human OX40-ECD.His A101G): 0.881
Fold Change (human OX40-ECD.His G68A): 0.998
Fold Change (human OX40-ECD.His I165A): 0.871
Fold Change (human OX40-ECD.His P171A): 1.02
Fold Change (human OX40-ECD.His R65A): 0.996
Fold Change (human OX40-ECD.His T62A): 0.923
Fold Change (human OX40-ECD.His D40A): 0.994
Fold Change (human OX40-ECD.His D163A): 0.318
B1: 1.134.9-u1-IgG1L (antibody, V domains shown)
VH: QVQLQESGPGLVKPSGTLSLTCAVSGGSISSYNWWSWVRQPPGKGLEWIGEIYHGGNTNYNPSLKSRVTMSVDNSKNQFSLKLSSVTAADTAVYYCARAPGDWGGSPYFDFWGQGTLVTVSS
VL: SSELTQDPAVSVALGQTVRITCQGDNLRTYYASWYQQKPGQAPILLIYGRNKRPSGIPDRFSGSSSGNTASLTITGAQAEDEAAYYCNSRDSSGNPVVFGGGTKLTVL
notes: fully human IgG1, lambda
